Assay results from the supplement of paper PMC7877785.
± gives the uncertainty stated by the source.

Test: self-splicing fitness, log relative to wild type (ln ratio); higher = more splicing; Tetrahymena group I intron in knt gene, E. coli kanamycin selection, DiMSum; sequences stand for … in CUCUCU…GGAGGGAAAAGUUAUCAGGCAUGCACCUGGUAGCUAGUCUUUAAACCAAUAGAUUGCAUCGGUUUAAAAGGCAAGACCGUCAAAUUGCGGGAAAGGGGUCAACAGCCGUUCAGUACCAAGUCUCAGGGGAAACUUUGAGAUGGCCUUGCAAAGGGUAUGGUAAUAAGCUGACGGACAUGGUCCUAACCACGCAGCCAAGUCCUAAGUCAACAGAUCUUCUGUUGAUAUGGAUGCAGUUCACAGACUAAAUGUCGGUCGGGGAAGAUGUAUUCUUCUCAUAAGAUAUAGUCGGACCUCUCCUUAAUGGGAGCUAGCGGAUGAAGUGAUGCAACACUGGAGCCGCUGGGAACUAAUUUGUAUGCGAAAGUAUAUUGAUUAGUUUUGGAGUACUCGUGGUCG
In short: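 The eight P1ex-region nucleotides of an intron in the knt kanamycin-resistance gene on pET-22b(+) were all randomised and the library put into E. coli BL21(DE3). Six replicate transformations were grown overnight at 37°C or 30°C on LB agar with or without 25 μg/mL kanamycin, together with 100 μg/mL carbenicillin, 50 μM IPTG and 0.2% rhamnose. Colonies were pooled and amplicon-sequenced on an Illumina HiSeq 2500. Fitness from DiMSum is the error-weighted combination of wild-type-normalised replicate fold changes, kanamycin over none.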

| Sequence | self-splicing fitness (ln) (30 °C) | self-splicing fitness (ln) (37 °C) |
| --- | --- | --- |
| GCCUAGCAAUAUUACGCGGA | -0.245 ± 0.08 | 0.226 ± 0.093 |
| GCCUAGCAAUAUUACGCUAC | -2.7 ± 0.21 | -2.81 ± 0.36 |
| GCCUAGCAAUAUUACGCUGU | -0.847 ± 0.09 | 0.254 ± 0.096 |
| GCCUAGCAAUAUUACGGAAC | -0.183 ± 0.091 | 0.0968 ± 0.16 |
| GCCUAGCAAUAUUACGGACG | -1.98 ± 0.2 | -0.148 ± 0.18 |
| GCCUAGCAAUAUUACGGAGU | -0.965 ± 0.085 | -0.198 ± 0.094 |
| GCCUAGCAAUAUUACGGAUC | -0.351 ± 0.12 | -0.096 ± 0.16 |
| GCCUAGCAAUAUUACGGGGU | -3.83 ± 0.19 | -2.19 ± 0.19 |
| GCCUAGCAAUAUUACGUACA | -2.54 ± 0.14 | -1.7 ± 0.13 |
| GCCUAGCAAUAUUACGUACC | -1.18 ± 0.099 | -0.205 ± 0.12 |
| GCCUAGCAAUAUUACGUAGC | -0.323 ± 0.11 | -0.445 ± 0.11 |
| GCCUAGCAAUAUUACGUAGG | -3.69 ± 0.18 | -2.93 ± 0.25 |
| GCCUAGCAAUAUUACGUAGU | -0.126 ± 0.068 | 0.357 ± 0.088 |
| GCCUAGCAAUAUUACGUAUG | -3.92 ± 0.16 | -2.61 ± 0.13 |
| GCCUAGCAAUAUUACGUAUU | -1.83 ± 0.098 | -1.73 ± 0.14 |
| GCCUAGCAAUAUUACGUCCA | -2.37 ± 0.18 | -1.38 ± 0.18 |
| GCCUAGCAAUAUUACGUCUC | -0.71 ± 0.064 | -0.518 ± 0.086 |
| GCCUAGCAAUAUUACGUGUG | -1.85 ± 0.057 | -0.937 ± 0.065 |
| GCGAAGCAAUAUUACGAAGA | -2.14 ± 0.22 | -0.931 ± 0.21 |
| GCGAAGCAAUAUUACGACGU | -2.69 ± 0.21 | -2.02 ± 0.2 |
| GCGAAGCAAUAUUACGAGAU | -2.89 ± 0.2 | -1.86 ± 0.22 |
| GCGAAGCAAUAUUACGAGUC | -2.93 ± 0.13 | -2.33 ± 0.21 |
| GCGAAGCAAUAUUACGCAAU | -3.2 ± 0.2 | -2.07 ± 0.19 |
| GCGAAGCAAUAUUACGCGUA | -2.03 ± 0.16 | -0.565 ± 0.13 |
| GCGAAGCAAUAUUACGGAAG | -2.62 ± 0.18 | -1.93 ± 0.16 |

| Sequence | self-splicing fitness (ln) (30 °C) | self-splicing fitness (ln) (37 °C) |
| --- | --- | --- |
| GCGAAGCAAUAUUACGGACU | -0.302 ± 0.12 | 0.296 ± 0.13 |
| GCGAAGCAAUAUUACGGAGG | -2.1 ± 0.18 | -0.467 ± 0.12 |
| GCGAAGCAAUAUUACGGCGC | -2.48 ± 0.29 | -1.01 ± 0.43 |
| GCGAAGCAAUAUUACGGCGG | -2.38 ± 0.19 | -1.34 ± 0.27 |
| GCGAAGCAAUAUUACGGUAA | -2.4 ± 0.15 | -1.65 ± 0.12 |
| GCGAAGCAAUAUUACGGUGC | -3.75 ± 0.18 | -2.95 ± 0.18 |
| GCGAAGCAAUAUUACGUAAU | -1.22 ± 0.097 | -1.07 ± 0.11 |
| GCGAAGCAAUAUUACGUACG | -2.46 ± 0.37 | -2.24 ± 0.34 |
| GCGCAGCAAUAUUACGAAGC | -2.98 ± 0.25 | -2.37 ± 0.18 |
| GCGCAGCAAUAUUACGAAGU | -0.905 ± 0.13 | -0.493 ± 0.16 |
| GCGCAGCAAUAUUACGACAC | -0.738 ± 0.38 | – |
| GCGCAGCAAUAUUACGACCA | -1.56 ± 0.25 | -0.19 ± 0.23 |
| GCGCAGCAAUAUUACGAGCA | -3.48 ± 0.21 | -1.11 ± 0.14 |
| GCGCAGCAAUAUUACGAGUA | -2.36 ± 0.11 | -0.845 ± 0.096 |
| GCGCAGCAAUAUUACGAUUC | -0.291 ± 0.09 | 0.1 ± 0.1 |
| GCGCAGCAAUAUUACGCAAA | -1.8 ± 0.087 | -0.777 ± 0.078 |
| GCGCAGCAAUAUUACGCAAG | -3.82 ± 0.23 | -2.52 ± 0.15 |
| GCGCAGCAAUAUUACGCAUC | -0.685 ± 0.092 | -0.339 ± 0.098 |
| GCGCAGCAAUAUUACGCCAA | – | -1.42 ± 0.47 |
| GCGCAGCAAUAUUACGCGAA | -0.172 ± 0.065 | -0.153 ± 0.083 |
| GCGCAGCAAUAUUACGCUAG | -3.26 ± 0.28 | -2.15 ± 0.33 |
| GCGCAGCAAUAUUACGCUGC | – | -3.59 ± 0.43 |
| GCGCAGCAAUAUUACGGAUA | -1.98 ± 0.16 | -0.989 ± 0.13 |
| GCGCAGCAAUAUUACGGCUU | 0.000989 ± 0.11 | 0.531 ± 0.15 |
| GCGCAGCAAUAUUACGGGAC | -2.13 ± 0.097 | 0.393 ± 0.096 |

| Sequence | self-splicing fitness (ln) (30 °C) | self-splicing fitness (ln) (37 °C) |
| --- | --- | --- |
| GCGCAGCAAUAUUACGGUCG | -2.26 ± 0.23 | -1.81 ± 0.22 |
| GCGCAGCAAUAUUACGUAGA | -2.28 ± 0.1 | -0.72 ± 0.099 |
| GCGCAGCAAUAUUACGUAUC | -0.438 ± 0.068 | -0.609 ± 0.085 |
| GCGCAGCAAUAUUACGUCCA | -1.63 ± 0.12 | -0.0959 ± 0.18 |
| GCGCAGCAAUAUUACGUGCU | -4.09 ± 0.2 | -2.87 ± 0.23 |
| GCGCAGCAAUAUUACGUGUG | -3.2 ± 0.12 | -2.65 ± 0.15 |
| GCGCAGCAAUAUUACGUUAA | -1.45 ± 0.089 | -0.728 ± 0.088 |
| GCGCAGCAAUAUUACGUUCA | -0.782 ± 0.098 | 0.151 ± 0.1 |
| GCGCAGCAAUAUUACGUUGA | -0.0364 ± 0.078 | -0.504 ± 0.085 |
| GCGGAGCAAUAUUACGACAC | -0.913 ± 0.22 | – |
| GCGGAGCAAUAUUACGACCA | – | -1.68 ± 0.41 |
| GCGGAGCAAUAUUACGACUU | -0.726 ± 0.15 | -1.48 ± 0.29 |
| GCGGAGCAAUAUUACGCAUA | -2.55 ± 0.49 | -2.74 ± 0.36 |
| GCGGAGCAAUAUUACGCUCA | -0.528 ± 0.3 | -0.54 ± 0.26 |
| GCGGAGCAAUAUUACGCUGA | -3.01 ± 0.35 | – |
| GCGGAGCAAUAUUACGCUUA | – | 1.64 ± 0.37 |
| GCGGAGCAAUAUUACGGACU | -3.06 ± 0.35 | -0.993 ± 0.19 |
| GCGGAGCAAUAUUACGGGUU | -4.22 ± 0.29 | -1.49 ± 0.14 |
| GCGGAGCAAUAUUACGGUUA | -2.84 ± 0.29 | -0.698 ± 0.21 |
| GCGGAGCAAUAUUACGUCGU | -4.11 ± 0.35 | -2.24 ± 0.36 |
| GCGGAGCAAUAUUACGUUCA | -0.896 ± 0.11 | -0.33 ± 0.096 |
| GCGUAGCAAUAUUACGAAGG | – | -2.27 ± 0.5 |
| GCGUAGCAAUAUUACGACUG | -1.54 ± 0.17 | -0.415 ± 0.17 |
| GCGUAGCAAUAUUACGAGGG | -3.37 ± 0.16 | -1.96 ± 0.17 |
| GCGUAGCAAUAUUACGAUCC | -2.41 ± 0.13 | -0.852 ± 0.15 |

| Sequence | self-splicing fitness (ln) (30 °C) | self-splicing fitness (ln) (37 °C) |
| --- | --- | --- |
| GCGUAGCAAUAUUACGAUUA | -0.494 ± 0.082 | 0.608 ± 0.085 |
| GCGUAGCAAUAUUACGCAAA | -2.37 ± 0.33 | -3.44 ± 0.42 |
| GCGUAGCAAUAUUACGCCCG | – | 0.544 ± 0.44 |
| GCGUAGCAAUAUUACGCCUA | -1.76 ± 0.45 | -1.07 ± 0.35 |
| GCGUAGCAAUAUUACGCGAG | – | -2.54 ± 0.27 |
| GCGUAGCAAUAUUACGGAGG | -3.61 ± 0.23 | -1.98 ± 0.18 |
| GCGUAGCAAUAUUACGGGCG | -2.97 ± 0.22 | -2.09 ± 0.22 |
| GCGUAGCAAUAUUACGGGUU | -2.12 ± 0.12 | -1.32 ± 0.15 |
| GCGUAGCAAUAUUACGUAUG | -2.96 ± 0.3 | -2 ± 0.24 |
| GCGUAGCAAUAUUACGUAUU | -2.67 ± 0.12 | -2.11 ± 0.19 |
| GCGUAGCAAUAUUACGUCAC | – | -0.245 ± 0.37 |
| GCGUAGCAAUAUUACGUCCG | -2.52 ± 0.26 | -1.48 ± 0.21 |
| GCGUAGCAAUAUUACGUCUG | -3.48 ± 0.23 | -3.38 ± 0.24 |
| GCGUAGCAAUAUUACGUGAG | -2.75 ± 0.17 | -2.67 ± 0.17 |
| GCGUAGCAAUAUUACGUGAU | -2.79 ± 0.24 | -1.56 ± 0.19 |
| GCGUAGCAAUAUUACGUUGU | -2.73 ± 0.17 | -1.89 ± 0.18 |
| GCUAAGCAAUAUUACGAGAG | -2.38 ± 0.12 | -1.27 ± 0.14 |
| GCUAAGCAAUAUUACGAUAA | -1.88 ± 0.17 | -1.1 ± 0.17 |
| GCUAAGCAAUAUUACGCCCG | -0.889 ± 0.11 | -0.34 ± 0.17 |
| GCUAAGCAAUAUUACGCGCG | -0.427 ± 0.084 | -0.075 ± 0.13 |
| GCUAAGCAAUAUUACGCUAA | -3.29 ± 0.34 | -2.3 ± 0.21 |
| GCUAAGCAAUAUUACGGCAU | -2.13 ± 0.1 | -0.863 ± 0.12 |
| GCUAAGCAAUAUUACGGCUG | -2.83 ± 0.15 | -2.03 ± 0.18 |
